# Key:
# [1] = biological target: CC^DD, CC fragment with glutamic acid replaced with aspartic acid at two core hydrophilic positions (Apis mellifera); assay: SDS-PAGE under oligomer-forming (very low denaturation) conditions with Western blot; myc-tagged proteins translated in reticulocyte lysate; native loading buffer with no SDS; 0.01% SDS in the gel, 0.15% SDS as running buffer; anti-myc detection; complexes and monomers quantified by chemiluminescence
# [2] = biological target: Fem proteins (Apis mellifera); assay: SDS-PAGE under oligomer-forming (very low denaturation) conditions with Western blot; complexation of Fem proteins (fig. S6); the text does not name the method, taken from the experiments on Csd that precede it
reduction of homotrimer formation compared to the WT [1] [%],stoichiometry N [2],Substance
50 to 90,,"CC^DD, CC fragment with glutamic acid replaced with aspartic acid at two core hydrophilic positions"
,3,Fem proteins (natural protein)
